Laboratory results reported in paper PMC11655901, “Mass balance, metabolic disposition, and pharmacokinetics of a single IV dose of [14C]CA102N in HT-29 xenograft athymic nude mice” (Frontiers in Pharmacology, 2024).

What was measured:
[1] = Quantitative Whole-Body Autoradiography (QWBA) tissue distribution of total radioactivity; format: in vivo, female BALB/c athymic (nu+/nu+) HT-29 xenograft mice
Description: Food and water were provided ad libitum.
Samples were collected on days 0 through 10.
The pinna, limbs, and tail were removed from each frozen carcass (Group 3) and the remaining carcass was embedded in an aqueous suspension of approximately 1% (w/v) carboxymethylcellulose and frozen into a block. The blocks were stored at approximately −20°C before sectioning. Each blocked carcass was mounted on a microtome stage (Leica CM3600 Cryomacrocut and/or a Vibratome 9800, Leica Corp., Nussloch, Germany) and maintained at approximately −20°C. Sections were collected and allowed to dry by sublimation in the cryomicrotome at −20°C for at least 48 h. A set of sections for each mouse was mounted on a cardboard backing, covered with a thin plastic wrap, and exposed along with calibration standards of [14C]-glucose mixed with blood at 10 different concentrations to a [14C]-sensitive phosphor imaging plate (Fuji Biomedical, Stamford, CT). The imaging plates and sections were placed in light-tight exposure cassettes, for a 4-day (96 h) exposure at room temperature. The imaging plates were scanned using the GE Healthcare Typhoon FLA 9500 image acquisition system (GE/Molecular Dynamics, Sunnyvale, CA, United States). Quantification was performed by image dosimetry using MCID image analysis software (Version 7.0, Interfocus Imaging Ltd., Linton, Cambridge, United Kingdom). A standard curve was constructed from the integrated response (MDC/mm2) and the nominal concentrations of the [14C]-calibration standards. The concentrations of radioactivity were expressed as the µg equivalents of CA102N per gram sample (µg equiv/g).
The following calculations were used to determine the µg equivalents/mL, or/g and % percent of dose in the tissue: µg equivalents/mL=µCi/mL/Specific Activity DosedµCi/mL µg equivalents/g=DPM of the sample×1/MassTissueg/Specific Activity of the radiolabeled moleculeDPM/g Percent of dose in tissue=µg eq in tissue×100/Specific Activity DosedμCi/μg
Autoradioluminographic image data were calibrated using response curves that were generated using a weighted, 1st-degree, polynomial, linear equation (1/MDC/mm^2). A numerical estimate of the goodness of fit was given by the relative error, where the absolute value for the relative error of each calibration standard must have been ≤0.250 to be accepted.
The LLOQ and ULOQ were set using calibration standard concentration values of 0.0003 and 20.973 μCi/g, respectively, which were widely proven values ([Kolbe and Dietzel, 2000]) that were verified during the QWBA system validation ([Solon and Lee, 2002]).

[2] = mouse, in vivo
Description: Female BALB/c athymic (nu+/nu+) mice (n = 48) were generated by Taconic (Germantown, NY). Mice (18–22 g) were acclimated for at least 3 days before subcutaneous implantation of 1 × 10^7 HT-29 colorectal carcinoma (ATCC number HTB38) cells in 100 μL 50:50 matrigel: PBS. Tumors were allowed to grow to 200–500 mm^3 sizes before initiating the study. Each animal was assigned a permanent identification number, and identified with a tail mark before being placed on the study. Food and water were provided ad libitum. Animal rooms were controlled to maintain a temperature of 68°F–79°F, and 20%–70% relative humidity, with a 12 h light/12 h dark cycle. Observations were recorded for all animals pre-dose and at least once daily post-dose. Mice were randomized into 3 groups and housed (n = 3 per cage) in metabolism cages (Group 1, n = 9) or shoebox cages (Group 2, n = 29 and Group 3, n = 10). Each mouse received a single bolus injection of CA102N via the tail vein. Urine, feces, cage residue, blood/plasma, tissue samples, and carcasses were collected from different groups for Mass Balance (MB), Metabolite Identification (MET-ID), Pharmacokinetics (PK), and Quantitative Whole-Body Autoradiography (QWBA) studies.
Samples were collected on days 0 through 10. […] The weights of all samples (except blood and plasma) were recorded and then stored at −70°C for later analysis. […]
Radioactivity in diluted formulations, plasma, and urine, was quantitated by mixing with a liquid scintillator, Ultima Gold scintillation cocktail (5 mL, PerkinElmer). Samples were analyzed by LSC for total radioactivity content. […] The resulting 14CO2 liberated during combustion was trapped in CarboSorb® and Perma-Fluor® scintillation cocktail was added automatically to the samples before total radioactivity measurement by LSC.
All LSC analyses were performed using a liquid scintillation analyzer (Perkin Elmer Model 2800TR or Model 2900TR). […] Data were corrected to the background by subtracting the dpm value measured from the analysis of blank samples (cocktail only).

[3] = mouse, in vivo; remark: listed apart in the source
Description: Female BALB/c athymic (nu+/nu+) mice (n = 48) were generated by Taconic (Germantown, NY). Mice (18–22 g) were acclimated for at least 3 days before subcutaneous implantation of 1 × 10^7 HT-29 colorectal carcinoma (ATCC number HTB38) cells in 100 μL 50:50 matrigel: PBS. Tumors were allowed to grow to 200–500 mm^3 sizes before initiating the study. Each animal was assigned a permanent identification number, and identified with a tail mark before being placed on the study. Food and water were provided ad libitum. Animal rooms were controlled to maintain a temperature of 68°F–79°F, and 20%–70% relative humidity, with a 12 h light/12 h dark cycle. Observations were recorded for all animals pre-dose and at least once daily post-dose. Mice were randomized into 3 groups and housed (n = 3 per cage) in metabolism cages (Group 1, n = 9) or shoebox cages (Group 2, n = 29 and Group 3, n = 10). […] Urine, feces, cage residue, blood/plasma, tissue samples, and carcasses were collected from different groups for Mass Balance (MB), Metabolite Identification (MET-ID), Pharmacokinetics (PK), and Quantitative Whole-Body Autoradiography (QWBA) studies.
Samples were collected on days 0 through 10. […] Blood samples were collected via cardiac puncture (Group 2), into EDTA-containing tubes at 0 (pre-dose), 0.5, 2, 8, 24, 48, 72, 120,168, 240, and 336 h after the dose, and plasma samples were harvested on wet ice for PK analysis. […] The weights of all samples (except blood and plasma) were recorded and then stored at −70°C for later analysis.
Radioactivity in diluted formulations, plasma, and urine, was quantitated by mixing with a liquid scintillator, Ultima Gold scintillation cocktail (5 mL, PerkinElmer). Samples were analyzed by LSC for total radioactivity content.
Nominal times were used for pharmacokinetic calculations. Phoenix® WinNonlin®, (version 6.3, Pharsight Corporation, Mountain View, CA, United States) noncompartmental pharmacokinetic analysis was used to determine PK parameters [Maximal concentration (Cmax), Time of maximal concentration (Tmax), Terminal half-life (t1/2), area under the curve to infinity observed (AUCinf obs [µg equiv·h/g]), and area under the curve all observed points (AUCall [µg equiv·h/g])]. The acceptance criteria for the terminal half-life (t1/2) estimation used regression of at least three time points. […] Plasma concentrations are expressed as µg equivalents (equiv)/g (assume 1 mL = 1 g).

HT-29 xenograft = test system: HT-29 xenograft; design: method as in Lin et al., 2017; details: 200 or 400 mg/kg weekly (QW) or three times a week (TIW); ref Lin et al., 2017; cited from earlier work
[4] = in vivo; cited from earlier work
[5] = In vivo metabolite profiling (HPLC-MS with radio flow-through detector) of plasma, urine, feces, liver, tumor; details: for free Nim or H-Nim in the biological samples evaluated: after [14C]CA102N 200 mg/kg IV
Description: Samples were collected on days 0 through 10. […] The weights of all samples (except blood and plasma) were recorded and then stored at −70°C for later analysis.
Fecal and tissue homogenates were maintained at approximately −70°C for MET-ID analysis. The metabolite profiling in the biological samples from mice dosed with [14C]CA102N was performed by HPLC-tandem mass spectrometry coupled with a radio flow-through detector (RFD). The HPLC-MS/radio flow-through detector (RFD) consisted of a Shimadzu NexeraTM (Shimadzu, disseminated Japan) ultra-high pressure liquid chromatography system with two LC-30AD pumps, a SIL30AC autosampler, and a CTO-30A column oven; A Sciex TripleTOF 6600TM (Sciex, Framingham, MA) mass spectrometer; and a β-RAM Model 3 RFD. The mass spectrometer was controlled by Analyst TF 1.7TM (Sciex, Framingham, MA), and the RFD was controlled by Laura Lite 5TM (LabLogic Systems, Brandon, FL) software. The HPLC eluent was split between the RFD and mass spectrometer with a ratio of 3 to 1.
[14C]CA102N and its metabolites were separated using reverse-phase and hydrophilic interaction chromatography. Two HPLC methods were used to separate the metabolites and the parent molecule CA102N, using RFD and mass spectrometer simultaneously.
Retention times of the metabolites were determined from the radio-chromatograms. Mass spectra (MS and MS/MS) of metabolite standards (H-Nim, H-Nim Saccharide, H-Nim Disaccharide) were acquired and major fragment patterns were proposed. […] For other unknown metabolites, molecular ions were searched on LC-MS chromatograms at the same retention times as those found on an HPLC radio-chromatogram. The product/ion spectra were acquired for the corresponding molecular ions. Putative metabolite structures were proposed based on the analysis of their mass fragment patterns.

[6] = PK of the parent molecule H-Nim in mice (LCMS of serum); format: in vivo, female BALB/c athymic (nu+/nu+) mice; details: 4.5 mg/kg IV
Description: Female BALB/c athymic (nu+/nu+) mice (n = 5) were used in the study. Mice were treated with a single bolus injection of H-Nim via the tail vein at 4.5 mg/kg. The blood samples were collected at 5, 10, 30, 60, and 120 min after treatment. Mice were anesthetized and decapitated to obtain the blood samples. Serum supernatant was collected and stored at −80 until analysis.
PK samples were analyzed by LCMS analysis. The retention time of H-Nim was approximately 25.4 min on the extracted ion chromatogram (XIC) and the protonated molecule of H-Nim was at m/z 279.

Molecule: N-(4-Amino-2-phenoxyphenyl) methanesulfonamide-graft-poly (β-D-(1, 3) glucuronic acid-β-D-(1, 4)-N-acetylglucosamine) conjugate [CA102N]
- lowest relative tissue concentrations: white adipose, brain, spinal cord, bone tissue, eye lens, mammary gland region, skeletal muscle ([1]; 200 mg/kg IV): < 60 μg equiv/g
- half-life of release of CA102N and its metabolites from tumor sites ([1]; mouse, in vivo): 74.2 h
- tissue-to-blood ratio, Blood (cardiac) ([1]; mouse, in vivo, iv, 200 mg/kg): 1.00
- total radioactivity, adrenal Gland ([1]; mouse, in vivo, iv, 200 mg/kg): 429.979 μg equiv/g
- total radioactivity, thyroid ([1]; mouse, in vivo, iv, 200 mg/kg): 469.62 μg equiv/g
- cage rinses, wash, and wipe combined, percent of dose [2]: 20%
- radioactivity elimination through urine, average percent of dose (abstract) [2]: 77%
- total dose eliminated within the first 24 h [2]: Around 60%
- systemic plasma clearance (CL) [3]: 0.2 mL/min/kg
- volume of distribution at steady state (Vss) [3]: 0.1 L/kg
- AUC 0-inf_obs ([3]; iv, 200 mg/kg): 18332.4 μg equiv/ml*h
- AUC 0-t ([3]; iv, 200 mg/kg): 18329.2 μg equiv/ml*h
- AUC 0-t/0-inf_obs ([3]; iv, 200 mg/kg): 0.99
- AUClast ([3]; iv, 200 mg/kg): 18,332.4 μg equiv/ml*h
- AUMC 0-inf_obs ([3]; iv, 200 mg/kg): 161062.0 μg equiv/ml*h^2
- C0 ([3]; iv, 200 mg/kg): 1985.6 μg equiv/ml
- Cl_obs ([3]; iv, 200 mg/kg): 0.01 (mg)/(μg equiv/ml)/h
- Clast_obs/Cmax ([3]; iv, 200 mg/kg): 5.5E-05
- Lambda_z ([3]; iv, 200 mg/kg): 0.03 h⁻¹
- MRT 0-inf_obs ([3]; iv, 200 mg/kg): 8.7 h
- Vss_obs ([3]; iv, 200 mg/kg): 0.09 (mg)/(μg/mL)
- Vz_obs ([3]; iv, 200 mg/kg): 0.3 (mg)/(μg equiv/ml)
- mean plasma radioactivity ([3]; iv, 200 mg/kg): 1.073 µg equivalents/mL
- tumor burden compared to vehicle-treated controls (HT-29 xenograft): significant reduction in tumor burden
- hepatotoxicity [4]: absence of hepatotoxicity

Molecule: CC(=O)NC1C(O)OC(CO)C(O)C1OC1OC(C(=O)Nc2ccc(NS(C)(=O)=O)c(Oc3ccccc3)c2)C(OC2OC(CO)C(O)C(OC3OC(C(=O)O)C(O)C(O)C3O)C2NC(C)=O)C(O)C1O (stereo not drawn) [M1037]
- metabolite in liver and tumor extracts ([5]; 240 h post-dose): dominant metabolite
- excretion by component, Liver + Tumor, percent of dose ([5]; Group 1, 200 mg/kg IV): 4.40%
- excretion by component, Total, percent of dose ([5]; Group 1, 200 mg/kg IV): 4.4%

Molecule: CS(=O)(=O)Nc1ccc(N)cc1Oc1ccccc1 [H-Nim]
- half-life [6]: < 5 min
- serum concentration at any time point greater than 5 min ([6]; detection limit 0.1 μg/mL): not detectable
- serum concentration ([6]; 5 min): 142 ng/mL
- free Nim or H-Nim in the biological samples evaluated [5]: No free Nim or H-Nim are determined

Molecule: CS(=O)(=O)Nc1ccc([N+](=O)[O-])cc1Oc1ccccc1 [Nimesulide, reference compound]
- free Nim or H-Nim in the biological samples evaluated [5]: No free Nim or H-Nim are determined

Molecule: CC(=O)NC1C(O)OC(CO)C(O)C1OC1OC(C(=O)Nc2ccc(NS(C)(=O)=O)c(Oc3ccccc3)c2)C(O)C(O)C1O (stereo not drawn) [M1]
- excretion by component, Feces, percent of dose ([5]; Group 1, 200 mg/kg IV): 13.20%
- excretion by component, Total, percent of dose ([5]; Group 1, 200 mg/kg IV): 13.2%
- metabolite in fecal extracts ([5]; pooled 0 to 120 h): primary metabolite
